Results reported in US7268216B2, “Chimeric avidin mutants” (Licentia Oy, priority 2004, dated 2007).
Read-outs that look alike come from different tables or passages of the source.

Legend:
[1] = IAsys optical biosensor (SPR), 2-iminobiotin binding; settings: 2-iminobiotin surface, 20° C., 50 mM borate buffer pH 9.5, 1 M NaCl
Method: The biotin-binding characteristics of the different avidins were studied by a surface plasmon resonance (SPR) optical biosensor (IAsys). The binding affinities to the 2-iminobiotin surface in 50 mM borate buffer (pH 9.5, 1 M NaCl) were measured as previously reported (7).

[2] = Microplate assay: remaining biotin-binding activity after heat treatment; type: physicochemical; settings: 50 mM phosphate buffer, 100 mM NaCl, pH 7.0
Method: The inactivation of the proteins during heat-treatment was analysed by using a microplate assay (23). The proteins were heated to 99.9° C. in 50 mM phosphate buffer containing 100 mM NaCl (pH 7.0) for 32 minutes. The remaining activity was probed by measuring the ability of the proteins to bind biotinylated alkaline phosphatase by coating the microplate wells with samples of the heated proteins.

Proteinase K [3] = experiment: Proteinase K assay (proteolytic resistance, SDS-PAGE); type: physicochemical; settings: for digested after treatment with Proteinase K: 16 hours, 37° C., Proteinase K 1/25 w/w, without biotin; for cleavage by Proteinase K: proteins saturated with biotin before treatment
Method: The proteolytic resistance of the proteins were studied using proteolysis by Proteinase K, as previously described (7). Protein sample (4 μg) was incubated in the presence of Proteinase K ( 1/25 w/w) at 37° C. for a predetermined time period, denatured by boiling in sample buffer (SDS, 2-mercaptoethanol) and subjected to SDS-PAGE followed by coomassie staining.

[4] = Differential scanning calorimetry (DSC), heat denaturation; type: physicochemical
Method: The transition midpoint of the heat denaturation (Tm) of the avidin proteins was studied using a Calorimetry Sciences Corporation (CSC) Nano II differential scanning calorimeter, as in previous reports (22,23). Proteins (˜0.5 mg/ml) were analyzed both in the absence and presence of biotin (3:1 molar ratio; biotin:avidin monomer).

[5] = Fluorescent biotin dissociation assay; type: binding
Method: The binding of labelled biotin to avidins was analysed by a method based on the quenching of a biotin-coupled fluorescent probe ArcDia BF560 (ArcDia Ltd., Turku, Finland) due to binding to avidin, as previously described (18). The measurements were performed using a PerkinElmer LS55 luminometer with thermostated cuvette (25 or 50° C.). The signal measured for 3600 sec (25° C.) or 2400 sec (50° C.) was used to determine the dissociation rate constant.

[6] = Radiobiotin dissociation assay; type: binding; settings: [3H]biotin, various temperatures
Method: The dissociation rate of [3H]biotin from avidin, AVR4/5 and the avidin mutants was determined as described in (20) at various temperatures. The activation thermodynamic parameters for AVR4/5(C122S) and avidin were determined by analysis of the dependence of the dissociation rate upon temperature using the global fit of all data, as described in (21).

[7] = cited from earlier work
Proteinase K [8] = settings: even without bound biotin; refs (8,32); cited from earlier work

For “AVD(I117Y): Avidin with mutation I117Y in 1-3 subunit interface, produced in baculovirus-infected insect cells”, the “kass, association rate constant” value [1] was “(2.3 ± 0.3) × 10^4 M^−1s^−1”, the “Activity: biotin-binding activity after 32 min treatment at 99.9° C.” value [2] was 47% and the “digested after treatment with Proteinase K” value (Proteinase K [3]) was 50%. The “cleavage by Proteinase K” value (Proteinase K [3]) was “no cleavage was observed”, the “Tm, transition midpoint of heat denaturation” value [4] was 97.5 °C and the “ΔTm, change in Tm upon addition of a three-fold molar excess of biotin” value ([4]; DSC) was 26.2 °C. For the same substance, the “Tm(+biotin)” value ([4]; DSC, biotin 3:1 molar ratio biotin:avidin monomer) was 123.7 ± 0.1 °C, the “ΔH (unfolding enthalpy)” value ([4]; DSC, sample without biotin) was 536 ± 6 kJ/mol and the “Tm(−biotin)” value ([4]; DSC, without biotin, average ± S.D) was 97.5 ± 0.4 °C. The “Release 1 h (total release of the probe)” value ([5]; 25° C.) was 3.0%, the “kdiss, dissociation rate constant” value ([5]; 25° C.) was 0.81 10^−5 s^−1 and the “Release 1 h (total release of the probe)” value ([5]; 50° C.) was 56.5%. The “kdiss, dissociation rate constant” value ([5]; 50° C.) was 1.61 10^−4 s^−1 and the “biotin binding / dissociation rate in radiobiotin dissociation assay” value [6] was “very tight, avidin-like biotin binding”.
With “AVD: Chicken avidin obtained from Belovo S. A.; homotetrameric egg-white glycoprotein (SEQ ID NO:1) [reference compound]” the “kass, association rate constant” value [1] was “(2.6 ± 0.2) × 10^4 M^−1s^−1”, the “Activity: biotin-binding activity after 32 min treatment at 99.9° C.” value [2] was 4% and the “digested after treatment with Proteinase K” value (Proteinase K [3]) was 50%. The “cleavage by Proteinase K” value (Proteinase K [3]) was “no cleavage was observed”, the “Release 1 h (total release of the probe)” value ([5]; 25° C.) was 10.7% and the “kdiss, dissociation rate constant” value ([5]; 25° C.) was 2.04 10^−5 s^−1. The “Release 1 h (total release of the probe)” value ([5]; 50° C.) was 71.5%, the “kdiss, dissociation rate constant” value ([5]; 50° C.) was 2.74 10^−4 s^−1 and the “ΔH (unfolding enthalpy)” value ([7]; DSC, sample without biotin, results from ref (8)) was 329 ± 5 kJ/mol. For the same substance, the “Tm(+biotin)” value ([7]; DSC, with biotin, results from ref (8)) was 117.0 ± 0.7 °C, the “Tm(−biotin)” value ([7]; DSC, without biotin, results from ref (8)) was 83.5 ± 0.1 °C and the “ΔTm, change in Tm upon addition of a three-fold molar excess of biotin” value ([7]; DSC, results from ref (8)) was 33.5 °C. For the same substance, the “Tm, transition midpoint of heat denaturation” value ([7]; from ref (8)) was 83.5 °C.
For “streptavidin: Bacterial analogue of avidin from Streptomyces avidinii”, the “resistance to cleavage by Proteinase K” value (Proteinase K [8]) is listed as “resistant to cleavage”.
